Test results: paper PMC5645493, “LAR-RPTP Clustering Is Modulated by Competitive Binding between Synaptic Adhesion Partners and Heparan Sulfate” (Frontiers in Molecular Neuroscience, 2017)

B1: human IL1RAPL1 Ig1-3 (domain or fragment)
chain: SADGCTDWSIDIKKYQVLVGEPVRIKCALFYGYIRTNYSLAQSAGLSLMWYKSSGPGDFEEPIAFDGSRMSKEEDSIWFRPTLLQDSGLYACVIRNSTYCMKVSISLTVGENDTGLCYNSKMKYFEKAELSKSKEISCRDIEDFLLPTREPEILWYKECRTKTWRPSIVFKRDTLLIREVREDDIGNYTCELKYGGFVVRRTTELTVTAPLTDKPPKLLYPMESKLTIQETQLGDSANLTCRAFFGYSGDVSPLIYWMKGEKFIEDLDENRVWESDIRILKEHLGEQEVSISLIVDSVEEGDLGNYSCYVENGNGRRHASVLL
modifications: glycans (NAG2-BMA-MAN) attached to N138
notes: IL-1 receptor accessory protein-like 1 (IL1RAPL1), human, Ig-like domains 1-3 of the extracellular part; In the functional row the Fc-fused form (Fc not cleaved) was used; also called IL-1 receptor accessory protein-like 1; IL1RAPL1 Ig1-3-Fc / IL1RAPL1-Fc (Fc kept, in the clustering assays only); source: High Five insect cells (baculovirus), secreted, purified (IgG Sepharose or protein A …)

How the values were obtained:
human IL1RAPL1 Ig1-3 = biological target: B1; assay: crystal structure; PTPδ Ig1-3(+/+) mixed with IL1RAPL1 Ig1-3 at 1:1, complex isolated by gel filtration; sitting drop, 296 K, 100 mM Tris-HCl pH 7.5, 200 mM zinc acetate, 10% PEG8K; space group P3_(2)12; 3.08 Å; conditions: both partners purified
[1] = biological target: the molecule itself; assay: as above

Binder | binding result (human IL1RAPL1 Ig1-3) | binding result [1]
human PTPδ Ig1-3(+/+) (domain or fragment, receptor-type tyrosine-protein phosphatase delta (PTPδ), human, Ig-like domains 1-3, splice form with the MeA and MeB inserts (+/+); In the functional rows the Fc-fused form (Fc not cleaved) was used; also called PTPδ Ig1-3 MeA+MeB+; LAR-RPTP (PTPδ); source: High Five insect cells (baculovirus), secreted, purified (IgG Sepharose or protein A Sepharose, thrombin, Superdex 200)) ETPPRFTRTPVDQTGVSGGVASFICQATGDPRPKIVWNKKGKKVSNQRFEVIEFDDGSGSVLRIQPLRTPRDEAIYECVASNNVGEISVSTRLTVLREDQIPRGFPTIDMGPQLKVVERTRTATMLCAASGNPDPEITWFKDFLPVDTSNNNGRIKQLRSESIGGTPIRGALQIEQSEESDQGKYECVATNSAGTRYSAPANLYVRELREVRRVPPRFSIPPTNHEIMPGGSVNITCVAVGSPMPYVKWMLGAEDLTPEDDMPIGRNVLELNDVRQSANYTCVAMSTLGVIEAIAQIT | binds | binds
B1 | – | binds
